In publication PMC3466273 one finds pKa data, which are given here for one protein.

This data set deals with His1 (position 1, -----HTASDA). Description: potentiometry. To be noted: not stated (electrode with a thermo-compensating apparatus); not stated (no added salt; distilled water with about 1 mM HCl/NaOH); none (distilled water acidified with 1 mM HCl, titrated with 1 mM NaOH); free peptide, 0.27 mM, 5 mL, in water.

With HTASDAAAAAALTAANAAAAAAASMA, the pKa is 6.0.
